T1: CD23 on B cells (human, UniProt P06734 1-321)
T1 construct: whole, on cells; also called CD23 receptor; CD23+ B-cells
T1 sequence (looked up): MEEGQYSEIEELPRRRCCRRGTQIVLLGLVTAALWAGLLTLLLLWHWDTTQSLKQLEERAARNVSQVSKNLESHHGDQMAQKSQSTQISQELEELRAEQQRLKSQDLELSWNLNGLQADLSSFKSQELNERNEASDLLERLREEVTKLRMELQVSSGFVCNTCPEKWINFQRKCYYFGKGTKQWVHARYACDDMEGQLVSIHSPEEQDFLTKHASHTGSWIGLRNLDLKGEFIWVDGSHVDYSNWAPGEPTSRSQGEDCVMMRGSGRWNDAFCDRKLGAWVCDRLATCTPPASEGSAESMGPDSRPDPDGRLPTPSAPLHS

T2: FcεRI on primary human basophils (human, UniProt P12319 26-257)
T2 construct: whole, on cells; on cells it stands with gamma chains (and a beta chain); also called FcεRIα on basophils; E2_79-treated basophils
T2 sequence (looked up): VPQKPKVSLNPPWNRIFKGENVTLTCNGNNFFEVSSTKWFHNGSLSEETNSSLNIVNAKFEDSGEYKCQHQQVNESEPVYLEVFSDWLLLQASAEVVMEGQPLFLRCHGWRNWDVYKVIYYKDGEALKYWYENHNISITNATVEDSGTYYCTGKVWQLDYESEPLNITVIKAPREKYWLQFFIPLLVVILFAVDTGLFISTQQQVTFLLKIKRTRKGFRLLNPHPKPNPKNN

B1: IgE-R419N-Fc3-4 (other)
chain: CADSNPRGVSAYLSRPSPFDLFIRKSPTITCLVVDLAPSKGTVNLTWSRASGKPVNHSTRKEEKQRNGTLTVTSTLPVGTRDWIEGETYQCNVTHPHLPRALMRSTTKTSGPRAAPEVYAFATPEWPGSRDKRTLACLIQNFMPEDISVQWLHNEVQLPDARHSTTQPRKTKGSGFFVFSRLEVTRAEWEQKDEFICRAVHEAASPSQTVQRAVSVNP
modifications: additional N-linked glycan at N419 (Asn-92 of SEQ ID NO: 2)
notes: Mammalian derived (HEK-6E); biotinylated in the basophil exchange assays; also called R419N-IgE-Fc3-4; R419N mutant
B2: IgE-Fc3-4 (other)
chain: CADSNPRGVSAYLSRPSPFDLFIRKSPTITCLVVDLAPSKGTVNLTWSRASGKPVNHSTRKEEKQRNGTLTVTSTLPVGTRDWIEGETYQCRVTHPHLPRALMRSTTKTSGPRAAPEVYAFATPEWPGSRDKRTLACLIQNFMPEDISVQWLHNEVQLPDARHSTTQPRKTKGSGFFVFSRLEVTRAEWEQKDEFICRAVHEAASPSQTVQRAVSVNP
notes: Made both in insect cells (High Five) and in mammalian cells (HEK-6E); the mammalian protein, biotinylated, was used in the cell assays; also called wild-type IgE-Fc3-4; WT IgE-Fc3-4

What was measured:
[1] = target: T1, CD23 on B cells; assay: summary sentence of Example 1
[2] = target: T2, FcεRI on primary human basophils; assay: flow cytometry on primary human basophils, anti-biotin staining
From the text: (§1) Blood was drawn from two healthy volunteers and a third volunteer with a history of food allergy ranging in age from 21 to 37 (the protocol for this study was approved by the Institutional Review Board of Stanford University, and all informed consent was obtained from all subjects). Blood was collected in heparin vacutainer tubes (BD), and washed in 10 blood volumes of BF buffer (RPMI-1640 (Life Technologies) supplemented with 10% fetal calf serum (FCS; Gibco) and 1% penicillin/streptomycin (Gibco)). […] The following day cells were washed three times with BF buffer at 4° C. and stained for analysis.
(§2) Stained cells were then lysed with RBS lysis buffer (BioLegend) for 5 min at room temperature, and washed with FACS buffer (PBS pH 7.4 supplemented with 10% FCS). Data were collected on a DxP FACSCAN from Cytek Development in Fremont, Calif. (10 colors with three lasers—488, 639, 407) using FlowJo CE and analyzed using FlowJo (version 10).

[3] = target: T1, CD23 on B cells; assay: flow cytometry on CD23+ B cells
From the text: as §1, §2

Binder	binding result [1]	binding result [2]	binding result [3]
B1	binds	binds	
B2		binds	binds

Source: patent US20180273626A1 (Stanford University, published 2018)
